From US20250084142A1 (INTARCIA THERAPEUTICS, published 2025) come the findings set out here.

For one assay, the target named is T1, NPY5R.
T1 sequence (Q15761 1-445, species assumed, looked up): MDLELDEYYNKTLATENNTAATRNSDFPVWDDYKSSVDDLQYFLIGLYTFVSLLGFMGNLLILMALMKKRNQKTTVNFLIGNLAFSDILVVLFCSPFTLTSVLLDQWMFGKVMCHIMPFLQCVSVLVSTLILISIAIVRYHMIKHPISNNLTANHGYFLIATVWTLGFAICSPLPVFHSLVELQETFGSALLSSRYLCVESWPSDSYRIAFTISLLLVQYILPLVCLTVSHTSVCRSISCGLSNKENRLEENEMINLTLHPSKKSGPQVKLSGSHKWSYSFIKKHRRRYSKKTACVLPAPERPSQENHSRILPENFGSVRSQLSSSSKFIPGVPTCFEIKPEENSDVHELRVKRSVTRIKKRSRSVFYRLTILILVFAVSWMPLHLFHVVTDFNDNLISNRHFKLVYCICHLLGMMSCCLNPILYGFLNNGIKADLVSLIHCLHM
Briefly: cell-based or functional assay.

The target in a further assay is T2, NPY2R.
T2 sequence (P49146 1-381, species assumed, looked up): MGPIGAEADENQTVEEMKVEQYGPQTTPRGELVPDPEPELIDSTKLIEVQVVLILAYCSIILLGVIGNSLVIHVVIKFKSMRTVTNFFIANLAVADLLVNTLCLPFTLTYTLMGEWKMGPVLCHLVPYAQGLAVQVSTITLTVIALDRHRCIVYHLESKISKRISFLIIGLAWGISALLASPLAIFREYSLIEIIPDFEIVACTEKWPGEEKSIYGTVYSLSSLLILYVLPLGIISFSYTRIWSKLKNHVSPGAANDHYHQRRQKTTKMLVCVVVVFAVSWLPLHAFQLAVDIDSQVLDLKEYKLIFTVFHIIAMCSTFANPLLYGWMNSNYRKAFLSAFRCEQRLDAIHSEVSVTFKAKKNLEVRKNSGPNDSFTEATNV
Briefly: cell-based or functional assay.

Starred links: 1 amine or outer side, 2 acyl side, 3 side chain; linkers in the order of their positions; H or OH if unused. Non-standard residues stand in square brackets, D forms with d. Groups on a side chain read outwards from the residue. No end group written: not given here. *: point of attachment. C20 diacid = O=C(O)CCCCCCCCCCCCCCCCCCC(=O)*; γGlu = O=C(O)[C@H](CCC(=O)[*:2])N[*:1]; NMeY = CN[C@@H](Cc1ccc(O)cc1)C(=O)O

B1: Compound A68 (peptide)
peptide: PKPEAPGK([γGlu-γGlu-C20 diacid])DASPEEWNRKYKDLRHYLNWLTRQRF-NH2
Regarding B1, the “NPY5R pEC50” value with NPY5R is 7.9 -Log(EC50, M). Also, the “NPY2R pEC50” value with NPY2R is 9.7 -Log(EC50, M).

B2: Compound A76 (peptide)
peptide: PKPEAPGK([γGlu-γGlu-C20 diacid])DASPKEWDRYYKDLRHYLNWLTRQRF-NH2
B2: the “NPY5R pEC50” value with NPY5R is 8.9 -Log(EC50, M). Further, the “NPY2R pEC50” value with NPY2R was 10.4 -Log(EC50, M).

B3: Compound A74 (peptide)
peptide: PKPEKPGK([γGlu-γGlu-C20 diacid])DASPEEWNRYYKDLRHYLNWLTRQRF-NH2
modifications: N-terminus assumed
SMILES: CC(C)C[C@H](NC(=O)[C@H](CC(=O)O)NC(=O)[C@H](CCCCN)NC(=O)[C@H](Cc1ccc(O)cc1)NC(=O)[C@H](Cc1ccc(O)cc1)NC(=O)[C@H](CCCNC(=N)N)NC(=O)[C@H](CC(N)=O)NC(=O)[C@H](Cc1c[nH]c2ccccc12)NC(=O)[C@H](CCC(=O)O)NC(=O)[C@H](CCC(=O)O)NC(=O)[C@@H]1CCCN1C(=O)[C@H](CO)NC(=O)[C@H](C)NC(=O)[C@H](CC(=O)O)NC(=O)[C@H](CCCCNC(=O)CC[C@H](NC(=O)CC[C@H](NC(=O)CCCCCCCCCCCCCCCCCCC(=O)O)C(=O)O)C(=O)O)NC(=O)CNC(=O)[C@@H]1CCCN1C(=O)[C@H](CCCCN)NC(=O)[C@H](CCC(=O)O)NC(=O)[C@@H]1CCCN1C(=O)[C@H](CCCCN)NC(=O)[C@@H]1CCCN1)C(=O)N[C@@H](CCCNC(=N)N)C(=O)N[C@@H](Cc1c[nH]cn1)C(=O)N[C@@H](Cc1ccc(O)cc1)C(=O)N[C@@H](CC(C)C)C(=O)N[C@@H](CC(N)=O)C(=O)N[C@@H](Cc1c[nH]c2ccccc12)C(=O)N[C@@H](CC(C)C)C(=O)N[C@H](C(=O)N[C@@H](CCCNC(=N)N)C(=O)N[C@@H](CCC(N)=O)C(=O)N[C@@H](CCCNC(=N)N)C(=O)N[C@@H](Cc1ccccc1)C(N)=O)[C@@H](C)O
Turning to B3, in the assay with NPY5R, the “NPY5R pEC50” value is 9 -Log(EC50, M). For the same molecule, the “NPY2R pEC50” value with NPY2R is 10.3 -Log(EC50, M).

B4: Compound A73 (peptide)
peptide: PKPEAPGK([γGlu-γGlu-C20 diacid])DASPKEWNRYYKDLRHYLNWLTRQRF-NH2
Take B4: the “NPY5R pEC50” value in the assay with NPY5R was 8.6 -Log(EC50, M). In addition, the “NPY2R pEC50” value with NPY2R is 10.3 -Log(EC50, M).

B5: Compound A4 (peptide)
peptide: K([γGlu-γGlu-C20 diacid])PKPEAPGKDASPEEWNRYYADARHYLNWLTRQR[NMeY]-NH2
modifications: N-terminus assumed
SMILES: CC(C)C[C@H](NC(=O)[C@H](Cc1ccc(O)cc1)NC(=O)[C@H](Cc1c[nH]cn1)NC(=O)[C@H](CCCNC(=N)N)NC(=O)[C@H](C)NC(=O)[C@H](CC(=O)O)NC(=O)[C@H](C)NC(=O)[C@H](Cc1ccc(O)cc1)NC(=O)[C@H](Cc1ccc(O)cc1)NC(=O)[C@H](CCCNC(=N)N)NC(=O)[C@H](CC(N)=O)NC(=O)[C@H](Cc1c[nH]c2ccccc12)NC(=O)[C@H](CCC(=O)O)NC(=O)[C@H](CCC(=O)O)NC(=O)[C@@H]1CCCN1C(=O)[C@H](CO)NC(=O)[C@H](C)NC(=O)[C@H](CC(=O)O)NC(=O)[C@H](CCCCN)NC(=O)CNC(=O)[C@@H]1CCCN1C(=O)[C@H](C)NC(=O)[C@H](CCC(=O)O)NC(=O)[C@@H]1CCCN1C(=O)[C@H](CCCCN)NC(=O)[C@@H]1CCCN1C(=O)[C@@H](N)CCCCNC(=O)CC[C@H](NC(=O)CC[C@H](NC(=O)CCCCCCCCCCCCCCCCCCC(=O)O)C(=O)O)C(=O)O)C(=O)N[C@@H](CC(N)=O)C(=O)N[C@@H](Cc1c[nH]c2ccccc12)C(=O)N[C@@H](CC(C)C)C(=O)N[C@H](C(=O)N[C@@H](CCCNC(=N)N)C(=O)N[C@@H](CCC(N)=O)C(=O)N[C@@H](CCCNC(=N)N)C(=O)N(C)[C@@H](Cc1ccc(O)cc1)C(N)=O)[C@@H](C)O
Consider B5, for which the “NPY5R pEC50” value in the assay with NPY5R is 7.3 -Log(EC50, M). The “NPY2R pEC50” value with NPY2R was 8.7 -Log(EC50, M).

B6: Compound A71 (peptide)
peptide: PKPEK([γGlu-γGlu-C20 diacid])PGKDASPKEWNRYYKDLRHYLNWLTRQRF-NH2
modifications: N-terminus assumed
SMILES: CC(C)C[C@H](NC(=O)[C@H](CC(=O)O)NC(=O)[C@H](CCCCN)NC(=O)[C@H](Cc1ccc(O)cc1)NC(=O)[C@H](Cc1ccc(O)cc1)NC(=O)[C@H](CCCNC(=N)N)NC(=O)[C@H](CC(N)=O)NC(=O)[C@H](Cc1c[nH]c2ccccc12)NC(=O)[C@H](CCC(=O)O)NC(=O)[C@H](CCCCN)NC(=O)[C@@H]1CCCN1C(=O)[C@H](CO)NC(=O)[C@H](C)NC(=O)[C@H](CC(=O)O)NC(=O)[C@H](CCCCN)NC(=O)CNC(=O)[C@@H]1CCCN1C(=O)[C@H](CCCCNC(=O)CC[C@H](NC(=O)CC[C@H](NC(=O)CCCCCCCCCCCCCCCCCCC(=O)O)C(=O)O)C(=O)O)NC(=O)[C@H](CCC(=O)O)NC(=O)[C@@H]1CCCN1C(=O)[C@H](CCCCN)NC(=O)[C@@H]1CCCN1)C(=O)N[C@@H](CCCNC(=N)N)C(=O)N[C@@H](Cc1c[nH]cn1)C(=O)N[C@@H](Cc1ccc(O)cc1)C(=O)N[C@@H](CC(C)C)C(=O)N[C@@H](CC(N)=O)C(=O)N[C@@H](Cc1c[nH]c2ccccc12)C(=O)N[C@@H](CC(C)C)C(=O)N[C@H](C(=O)N[C@@H](CCCNC(=N)N)C(=O)N[C@@H](CCC(N)=O)C(=O)N[C@@H](CCCNC(=N)N)C(=O)N[C@@H](Cc1ccccc1)C(N)=O)[C@@H](C)O
As to B6, in the assay with NPY5R, the “NPY5R pEC50” value was 8.8 -Log(EC50, M). The “NPY2R pEC50” value with NPY2R is 10.7 -Log(EC50, M).

B7: Compound A69 (peptide)
peptide: PKPEAPGK([γGlu-γGlu-C20 diacid])DASPEEWNRYKKDLRHYLNWLTRQRF-NH2
For the molecule B7, in the assay with NPY5R, the “NPY5R pEC50” value is 8.3 -Log(EC50, M). For the same molecule, the “NPY2R pEC50” value in the assay with NPY2R is 10 -Log(EC50, M).

B8: Compound A70 (peptide)
peptide: PKPEKPGKDASPK([γGlu-γGlu-C20 diacid])EWNRYYKDLRHYLNWLTRQRF-NH2
modifications: N-terminus assumed
SMILES: CC(C)C[C@H](NC(=O)[C@H](CC(=O)O)NC(=O)[C@H](CCCCN)NC(=O)[C@H](Cc1ccc(O)cc1)NC(=O)[C@H](Cc1ccc(O)cc1)NC(=O)[C@H](CCCNC(=N)N)NC(=O)[C@H](CC(N)=O)NC(=O)[C@H](Cc1c[nH]c2ccccc12)NC(=O)[C@H](CCC(=O)O)NC(=O)[C@H](CCCCNC(=O)CC[C@H](NC(=O)CC[C@H](NC(=O)CCCCCCCCCCCCCCCCCCC(=O)O)C(=O)O)C(=O)O)NC(=O)[C@@H]1CCCN1C(=O)[C@H](CO)NC(=O)[C@H](C)NC(=O)[C@H](CC(=O)O)NC(=O)[C@H](CCCCN)NC(=O)CNC(=O)[C@@H]1CCCN1C(=O)[C@H](CCCCN)NC(=O)[C@H](CCC(=O)O)NC(=O)[C@@H]1CCCN1C(=O)[C@H](CCCCN)NC(=O)[C@@H]1CCCN1)C(=O)N[C@@H](CCCNC(=N)N)C(=O)N[C@@H](Cc1c[nH]cn1)C(=O)N[C@@H](Cc1ccc(O)cc1)C(=O)N[C@@H](CC(C)C)C(=O)N[C@@H](CC(N)=O)C(=O)N[C@@H](Cc1c[nH]c2ccccc12)C(=O)N[C@@H](CC(C)C)C(=O)N[C@H](C(=O)N[C@@H](CCCNC(=N)N)C(=O)N[C@@H](CCC(N)=O)C(=O)N[C@@H](CCCNC(=N)N)C(=O)N[C@@H](Cc1ccccc1)C(N)=O)[C@@H](C)O
In the case of B8, in the assay with NPY5R, the “NPY5R pEC50” value was 8.7 -Log(EC50, M). In the assay with NPY2R, the “NPY2R pEC50” value was 10.4 -Log(EC50, M).

B9: Compound A66 (peptide)
peptide: PKPEAPGK([γGlu-γGlu-C20 diacid])DKSPEEWNRYYKDLRHYLNWLTRQRF-NH2
In the case of B9, the “NPY5R pEC50” value with NPY5R was 8.3 -Log(EC50, M). In the assay with NPY2R, the “NPY2R pEC50” value is 10.3 -Log(EC50, M).

B10: Compound A5 (peptide)
peptide: PK([γGlu-γGlu-C20 diacid])PEAPGKDASPEEWNRYYADARHYLNWLTRQR[NMeY]-NH2
modifications: N-terminus assumed
SMILES: CC(C)C[C@H](NC(=O)[C@H](Cc1ccc(O)cc1)NC(=O)[C@H](Cc1c[nH]cn1)NC(=O)[C@H](CCCNC(=N)N)NC(=O)[C@H](C)NC(=O)[C@H](CC(=O)O)NC(=O)[C@H](C)NC(=O)[C@H](Cc1ccc(O)cc1)NC(=O)[C@H](Cc1ccc(O)cc1)NC(=O)[C@H](CCCNC(=N)N)NC(=O)[C@H](CC(N)=O)NC(=O)[C@H](Cc1c[nH]c2ccccc12)NC(=O)[C@H](CCC(=O)O)NC(=O)[C@H](CCC(=O)O)NC(=O)[C@@H]1CCCN1C(=O)[C@H](CO)NC(=O)[C@H](C)NC(=O)[C@H](CC(=O)O)NC(=O)[C@H](CCCCN)NC(=O)CNC(=O)[C@@H]1CCCN1C(=O)[C@H](C)NC(=O)[C@H](CCC(=O)O)NC(=O)[C@@H]1CCCN1C(=O)[C@H](CCCCNC(=O)CC[C@H](NC(=O)CC[C@H](NC(=O)CCCCCCCCCCCCCCCCCCC(=O)O)C(=O)O)C(=O)O)NC(=O)[C@@H]1CCCN1)C(=O)N[C@@H](CC(N)=O)C(=O)N[C@@H](Cc1c[nH]c2ccccc12)C(=O)N[C@@H](CC(C)C)C(=O)N[C@H](C(=O)N[C@@H](CCCNC(=N)N)C(=O)N[C@@H](CCC(N)=O)C(=O)N[C@@H](CCCNC(=N)N)C(=O)N(C)[C@@H](Cc1ccc(O)cc1)C(N)=O)[C@@H](C)O
Consider B10, for which the “NPY5R pEC50” value with NPY5R was 8 -Log(EC50, M). For the same molecule, in the assay with NPY2R, the “NPY2R pEC50” value is 7.7 -Log(EC50, M).

B11: Compound A67 (peptide)
peptide: PKPEAPGK([γGlu-γGlu-C20 diacid])DASPEKWNRYYKDLRHYLNWLTRQRF-NH2
As for B11, in the assay with NPY5R, the “NPY5R pEC50” value is 8.5 -Log(EC50, M). Also, in the assay with NPY2R, the “NPY2R pEC50” value was 10.3 -Log(EC50, M).
